# Substrate: CC(=O)Oc1ccc([N+](=O)[O-])cc1
# Assay: purified protein
# Format: biochemical, Exiguobacterium antarcticum
# Details: optimal conditions (optimal pH 7.0), free enzyme
protein,measurement,value
"EaEst2 (Exiguobacterium antarcticum) (protein, full-length gene in pET-28a (NheI/XhoI), N-terminal 6xHis tag, E. coli BL21(DE3); monomer; catalytic triad Ser93, Asp190, His220; motif GLSLG 91-95) MKITLPKPFFFEGGNRAVLLLHGFTGSSADVRMLGRYLQKHGYTSLAPQYKGHAAPPEELTKTGPADWWQDVLDGYEELKAKGYDEIAVCGLSLGGVMSLRLSMHRPVKAVIPMCAPAYIKSEDVMYAGVTEYAREFKKREGKSVDEIEQEMAVFEPMPTLKDLQALLKETRDSLEDVYAPTLVVQARNDHMINTDSANIIHDGVSALQKELIWYENSGHVITLDKEKETLHQDIHEFLDGLNWSH",Km,590 µM

# Reference: PMC10418727, “Structural and Biochemical Insights into Bis(2-hydroxyethyl) Terephthalate Degrading Carboxylesterase Isolated from Psychrotrophic Bacterium Exiguobacterium antarcticum” (International Journal of Molecular Sciences, 2023)
